Experimental data from paper PMC10087552, “Non‐canonical binding of the Chaetomium thermophilum PolD4 N‐terminal PIP motif to PCNA involves Q‐pocket and compact 2‐fork plug interactions but no 3_10 helix” (The Febs Journal, 2022).

What was measured:
[1] = biological target: Chaetomium thermophilum PCNA (proliferating cell nuclear antigen) (Chaetomium thermophilum); assay: crystal structure; apo Ct PCNA; 0.1 M PTCP buffer pH 5.0, 25% PEG 1500; 2.34 Å, space group H3, a single chain in the asymmetric unit
[2] = biological target: Chaetomium thermophilum PCNA (proliferating cell nuclear antigen) (Chaetomium thermophilum); assay: crystal structure; co-crystallisation of Ct PCNA with the peptide; 0.2 M calcium acetate, 0.1 M sodium cacodylate pH 6.5, 36% PEG 300; 2.45 Å, space group P1, two trimers in the asymmetric unit
human PCNA = settings: human PCNA–p12 PIP peptide interaction; ref [25]; read-out: dissociation constant (K D); cited from earlier work
Protocol: To examine the interaction between the Ct PolD4 PIP motif and Ct PCNA in greater detail and in the absence of GST, isothermal titration calorimetry (ITC) was used to determine the binding affinity of PCNA for a 15 amino acid synthetic PolD4 PIP peptide (sequence: ^21KHQSTLNFKHRVTKP^35) and the stoichiometry of the interaction (Fig. 4C). The dissociation constant (K D) was determined to be 22 ± 0.6 μM at 25 °C, broadly similar to that reported for the human PCNA–p12 PIP peptide interaction (38 ± 4 μM). The stoichiometry was determined to be 1 : 1 (i.e. 1 peptide : 1 PCNA protomer) indica ... || Three amino acids are key to interactions between Ct PolD4 and Ct PCNA: Gln23, Leu26 and Phe28. All three are strictly conserved in PolD4 proteins from fungal species closely related to C. thermophilum (Fig. 3). The sidechain of Gln23 inserts into the Q‐pocket on PCNA while the sidechains of Leu26 and Phe28 insert into the hydrophobic pocket located under the interdomain connector loop (IDCL) on the surface of PCNA (Figs 5 and 6A, upper left panel). The human p12 protein lacks the glutamine, equivalent to Gln23, that marks the start of the canonical PIP motif (Qxxψxxθθ), instead having a lysin ...

[3] = biological target: Chaetomium thermophilum PCNA (proliferating cell nuclear antigen) (Chaetomium thermophilum); assay: ITC; Ct PolD4 PIP peptide (400 uM) titrated into Ct PCNA (30 uM) in the cell, 25 °C, 50 mM Tris-HCl, 50 mM NaCl, pH 8.0; single-site binding model; duplicate

Chaetomium thermophilum PCNA (proliferating cell nuclear antigen) (natural protein)
stoichiometry N [1]: 3 protomers
stoichiometry N [2]: 3 protomers

RKRLITDSYPVV [human p12 PIP peptide, N‐terminal PIP motif peptide of the human Pol δ subunit p12 (PolD4)]
Kd (human PCNA): 38 ± 4 µM

KHQSTLNFKHRVTKP [Ct PolD4 PIP peptide (residues 21-35 of Chaetomium thermophilum PolD4)]
Kd [3]: 22 µM
stoichiometry N (peptide per PCNA protomer) [3]: 1
